# Test results: patent publication US20150037343A1
# Positions count from the first letter of the chain named.
# B1: SAIT-ANG2-AB-2-E6 (scFv form) (scFv, V domains shown)
# VH: EVQLLESGGGLVQTGGSLRLSCAASGFTFSDYAMSWVRQAPGKGLEWVSAIYPDSGNKYYADSVKGRFTISRDNSKNTLYLQMNSLRAEDTAVYYCARHSSDPKVKSGYYDDGMDVWGQGTLVAVSS
# VL: QSVLTQPPSASGTPGQRVTISCSGSSSNIGNNAVNWYQQLPGTAPKLLIYADSNRPSGVPDRFSGSKSGTSASLAISGLRSEDEADYYCGSWDYSLSGYVFGGGTKLTVLG
# B2: SAIT-ANG2-AB-4-C11 (scFv form) (scFv, V domains shown)
# VH: EVQLLESGGGLVQPGGSLRLSCAASGFTFSDYAMSWVRQAPGKGLEWVSSIYPDDGNTYYADSVKGRFTISRDNSKNTLYLQMNSLRAEDTAVYYCARHTSHHTSIDGYYYYGMDGWGQGTLVTVSS
# VL: B1 VL with S23T, A33D, N35S, A51S, N54K
# B3: SAIT-ANG2-AB-4-F11 (scFv form) (scFv, V domains shown)
# VH: EVQLLESGGGLVQTGGSLRLSCAASGFTFSDYAMSWVRQAPGKGLEWVSSIYPDDGNTYYADSVKGRFTISRDNSKNTLYLQMNSLRAEDTAVYYCAKHPVRLNLHPMYYYYGMDVWGQGTLVTVSS
# VL: B1 VL with S23T, N35S, A51S, N54Q, G90A, S91T, G98A
# B4: SAIT-ANG2-AB-7-C9 (scFv form) (scFv, V domains shown)
# VH: EVQLLESGGGLVQPGGSLRLSCAASGFTFSNYAMSWVRQAPGKGLEWVSAISSGGGNIYYADSVKGRFTISRDNSKNTLYLQMNSLRAEDTAVYYCAKSGIQPSPPSMSSAYAMDVWGQGTLVTVSS
# VL: B1 VL with A33D, N35Y, D52N, N54H, S91T
# B5: SAIT-ANG2-AB-3-D3 (scFv form) (scFv, V domains shown)
# VH: EVQLLESGGGLVQPGGSLRLSCAASGFTFSDYDMSWVRQAPGKGLEWVSGISSDDGNTYYADSVKGRFTISRDNSKNTLYLQMNSLRAEDTAVYYCARPTIDKYTLRGYYSYGMDVWGQGTLVTVSS
# VL: B1 VL with S23T, N31S, A33Y, N35S, A51S, S53N, N54K, S91T, Y94D, S97N
# B6: SAIT-ANG2-AB-4-F5 (scFv form) (scFv, V domains shown)
# VH: EVQLLESGGGLVQPGGSLRLSCAASGFTFSDYDMSWVRQAPGKGLEWVSSISHGDSNKYYADSVKGRFTISRDNSKNTLYLQMNSLRAEDTAVYYCAKSSGIQESPPTYYYYGMDVWGQGTLVTVSS
# VL: B1 VL with N31S
# Molecular target: FLAG-tagged Ang2 mutant A449 (alanine) (human) (UniProt O15123)
# Assay: ELISA, scFv coated, FLAG-tagged mutant Ang2, anti-FLAG-HRP
# Chain of UniProt O15123 (O15123 other isoform, or with tags, fused parts or gaps mutant): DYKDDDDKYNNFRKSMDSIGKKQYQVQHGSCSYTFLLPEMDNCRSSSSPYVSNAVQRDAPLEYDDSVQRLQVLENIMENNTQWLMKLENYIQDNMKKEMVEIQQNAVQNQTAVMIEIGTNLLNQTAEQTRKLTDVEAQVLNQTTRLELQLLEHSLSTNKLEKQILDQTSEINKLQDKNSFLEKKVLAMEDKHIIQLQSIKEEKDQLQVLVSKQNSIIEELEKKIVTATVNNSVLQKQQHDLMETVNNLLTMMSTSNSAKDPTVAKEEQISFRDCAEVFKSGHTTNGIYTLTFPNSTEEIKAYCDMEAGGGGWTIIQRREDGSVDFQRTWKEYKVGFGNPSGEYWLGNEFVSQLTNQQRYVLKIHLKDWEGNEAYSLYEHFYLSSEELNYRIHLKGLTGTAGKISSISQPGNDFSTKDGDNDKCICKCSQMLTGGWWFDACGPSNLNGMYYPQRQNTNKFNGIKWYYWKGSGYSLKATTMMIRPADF
row,Relative binding (%) with Mutant Ang2 compared to the binding with native Ang2,Binder
1,3.3%,B1
2,4.8%,B2
3,16.7%,B3
4,14.5%,B4
5,101%,B5
6,14%,B6
